Reference: US20210032351A1 (XDCEXPLORER SHANGHAI, published 2021)
Positions count from the first letter of the chain named.

Experiments:
[1] = molecular target: T1, human EGFR protein (wild-type), on cells (human, UniProt P00533 25-1210); assay: FACS on U87MG and HEB cells
T1 construct: whole, on cells; transfected on CHO-K1 cells; endogenous on the human cell lines; the cell is named under assay; also called wild-type EGFR; hEGFR
Description: (§1) The collected cells are suspended to 2×10⁶ cells/mL with an FACS buffer (HBSS+1% BSA, with the percentage being the mass percentage), added to a 96-well FACS reaction plate at 100 μL/well, then added with 100 μL/well of the purified EGFRvIII antibody (samples to be tested) obtained in example 2, and incubated on ice for 2 hours. The plate is centrifugally washed twice with the FACS buffer, added with 100 μL/well of a fluorescence (Alexa 488) labeled secondary antibody (purchased from Invitrogen), and then incubated on ice for 1 hour. The plate is centrifugally washed 3 times with the FACS buffer, added with 100 μL/well of a fixing solution [4% (v/v) paraformaldehyde] for suspending the cells, and centrifugally washed twice with the FACS buffer after 10 minutes. The cells are suspended in 100 μL of the FACS buffer, and the results are detected and analyzed by FACS (FACS Calibur, purchased from BD). Data analysis is performed by using the software (CellQuest) to obtain the mean fluorescence intensity (MFI) of the cells. Data is further analyzed by using the software (GraphPad Prism5) to perform data fitting and calculate EC50. […] A431 cells (human epidermal cell cancer cell lines) have a large amount of wild-type EGFR protein expressed on the surface thereof. […] U87MG cells (human glioma cell lines) have a small amount of wild-type EGFR protein expressed on the surface thereof, while HEB cells (human glioma cell lines) have a high level of wild-type EGFR protein expression on the surface thereof.

[2] = molecular target: T2, human EGFRvIII-hFc protein (human, UniProt P00533 25-645); assay: ELISA, coated EGFRvIII-hFc, antibody 1 nM
T2 construct: extracellular domain; made in HEK293 cells, purified on protein A; also called immunogen A; hFc-tagged EGFRvIII protein; not shown: human IgG Fc fragment (hFc) of the pCpC vector
Description: (§2) The purified immunogen A (EGFRvIII-hFc) obtained in example 1 (for the preparation method, see step (I) in example 1) is diluted with PBS to a final concentration of 1.0 μg/mL, and then added to a 96-well ELISA plate at 100 μl/well. The plate is sealed with a plastic film and incubated at 4° C. overnight. The next day, the plate is washed twice with a plate washing solution [PBS+0.01% (v/v) Tween20], and added with a blocking solution [PBS+0.01% (v/v) Tween20+1% (w/w) BSA] for blocking 2 hours at room temperature. The blocking solution is discarded, and the purified EGFRvIII antibody obtained in example 2 is added at 100 μl/well. The plate is incubated for 2 hours at 37° C., and then washed 3 times with the plate washing solution [PBS+0.01% (v/v) Tween20]. The plate is added with an HRP (horseradish peroxidase) labeled secondary antibody (purchased from Sigma), incubated at 37° C. for 2 hours, and then washed 3 times with the plate washing solution [PBS+0.01% (v/v) Tween20]. The plate is added with 100 μl of TMB substrate/well, incubated for 30 minutes at room temperature, and then added with 100 μl of stopping solution (1.0N HCl)/well. A450 nm value is read using an ELISA plate reader (SpectraMax 384plus, purchased from Molecular Device), and the results are shown in FIG. 6 and table 10.

[3] = molecular target: T2, human EGFRvIII-hFc protein; assay: ELISA, coated EGFRvIII-hFc, antibody 10 nM
Description: as §2

[4] = molecular target: T2, human EGFRvIII-hFc protein; assay: ELISA, coated EGFRvIII-hFc, antibody 0.1 nM
Description: as §2

[5] = molecular target: T2, human EGFRvIII-hFc protein; assay: ELISA, coated EGFRvIII-hFc, antibody 100 nM
Description: as §2

[6] = molecular target: T2, human EGFRvIII-hFc protein; assay: ELISA, coated EGFRvIII-hFc, antibody 0.01 nM
Description: as §2

[7] = molecular target: T2, human EGFRvIII-hFc protein; assay: ELISA, coated EGFRvIII-hFc, antibody 0.001 nM
Description: as §2

[8] = molecular target: T2, human EGFRvIII-hFc protein; assay: ELISA, coated EGFRvIII-hFc, antibody 0.0001 nM
Description: as §2

[9] = molecular target: T3, human wild-type EGFR protein on the cell surface (human, UniProt P00533 25-1210); assay: FACS on CHOk1-EGFR cells
T3 construct: whole, on cells; Endogenous on A431, HEB, U87MG cells and normal human primary hepatocytes; transfected on CHOk1-EGFR cells; The cell is named under assay; also called A431; HEB
Description: as §1, with “The cells are washed twice with the HBSS buffer and are counted, and then the cells are diluted with the HBSS buffer to 2×10⁶ cells/ml, added with 1% goat serum blocking solution, with the percentage being the mass percentage, and incubated on ice for 30 minutes, and then centrifugally washed twice with the HBSS buffer. The collected” for “The collected”

[10] = molecular target: T4, human EGFRvIII-hFc protein (human, UniProt P00533 25-645); assay: ELISA, EGFRvIII-hFc coated
T4 construct: extracellular domain; also called immunogen A; hFc-tagged EGFRvIII protein; not shown: human IgG Fc fragment (hFc) of the pCpC vector
Description: as §2, with “temperature. […]” for “temperature. The blocking solution is discarded, and the purified EGFRvIII antibody obtained in example 2 is added at 100 μl/well.”, “FIG. 11” for “FIG. 6”, “table 19.” for “table 10.”

[11] = molecular target: T5, human EGFRvIII protein on the cell surface (human, UniProt P00533 25-1210); assay: FACS on CHOk1-EGFRvIII cells
T5 construct: whole, on cells; the cell line is named under assay; also called hEGFRvIII; U87MG-hEGFRvIII
Description: The desired cells are subjected to an expanded culture to 90% confluence in a T-75 cell culture flask; the medium is sucked out, and the cells are washed twice with a HBSS buffer (Hanks Balanced Salt Solution) (purchased from Invitrogen), and then treated with an enzyme-free cell dissociation solution (Versene solution: purchased from Life Technology) and collected. The cells are washed twice with the HBSS buffer and are counted, and then the cells are diluted with the HBSS buffer to 2×10⁶ cells/ml, added with 1% goat serum blocking solution, with the percentage being the mass percentage, and incubated on ice for 30 minutes, and then centrifugally washed twice with the HBSS buffer. The collected cells are suspended to 2×10⁶ cells/mL with an FACS buffer (HBSS+1% BSA, with the percentage being the mass percentage), added to a 96-well FACS reaction plate at 100 μL/well, then added with 100 μL/well of the purified EGFRvIII antibody (samples to be tested) obtained in example 2, and incubated on ice for 2 hours. The plate is centrifugally washed twice with the FACS buffer, added with 100 μL/well of a fluorescence (Alexa 488) labeled secondary antibody (purchased from Invitrogen), and then incubated on ice for 1 hour. The plate is centrifugally washed 3 times with the FACS buffer, added with 100 μL/well of a fixing solution [4% (v/v) paraformaldehyde] for suspending the cells, and centrifugally washed twice with the FACS buffer after 10 minutes. The cells are suspended in 100 μL of the FACS buffer, and the results are detected and analyzed by FACS (FACS Calibur, purchased from BD). Data analysis is performed by using the software (CellQuest) to obtain the mean fluorescence intensity (MFI) of the cells. Data is further analyzed by using the software (GraphPad Prism5) to perform data fitting and calculate EC50. […] A431 cells (human epidermal cell cancer cell lines) have a large amount of wild-type EGFR protein expressed on the surface thereof.

B1: Murine anti-53D8 (antibody, V domains shown)
VH: QVQLQQSGAELARPGASVKMSCKASGYTFTSYTMHWVKQRPGQGLEWIGYINPSSGYTKYNQIFKDKATLTADKSSSTAYMQLSSLTSEDSAVYYCTRGGGRGFAYWGQGTLVTVSA
VL: DILMTQSPSSMSVSLGDTVSITCHASQDINSNIGWLQQKPGKSFKGLIYHGTNLEDGVPSRFSGSGSGADYSLTISSLESEDFADYYCVQYAQFPFTFGSGTKLEIK
notes: murine hybridoma antibody; also called 53D8H4
With B1 the binding result [1] was “no binding”, the OD450 nm [2] was 3.2 and the OD450 nm [3] was 3.69. The OD450 nm [4] was 0.64, the OD450 nm [5] was 3.72 and the OD450 nm [6] was 0.16. It also gave an OD450 nm [7] of 0.1 and an OD450 nm [8] of 0.09.

B2: c75G7C6-1 (antibody, human IgG1, V domains shown)
VH: EVQLQQSGPELVKPGASVKIPCKASGYTFTDYNMDWVKQSHGKSLEWIGDINPNNADTIYNQKFKGKATLTVDKSSSTAYMELRSLTSEDTAVYYCARGDYDGYYPVYYAMDYWGQGTSVTVSS
VL: ENVLTQSPAIMSASPGEKVTMTCRASSSVSSSYLHWYQQKSGASPKLWIFSTSNLAAGVPARFSGSGSGTSYSLTVSSVEAEDAATYYCQQYSGYPLTFGAGTKLELK
notes: Chimeric 75G7C6 with NG of heavy chain CDR2 mutated to NA; also called c754G7C6-1; mutant chimeric antibody NG/NA
B2 was tested, and the EC50 [9] was 11.3 nM, the “Maximum mean fluorescence intensity” value [9] was 134000 MFI and the EC50 [10] was 0.02 nM. For the same binder, the “Maximum OD450 value” [10] was 3.44 OD450, the EC50 [11] was 7.45 nM and the “Maximum mean fluorescence intensity” value [11] was 110000 MFI.

B3: c75G7C6-2 (antibody, human IgG1, V domains shown)
VH: B2 VH with N55Q, A56G
VL: B2 VL
notes: Chimeric 75G7C6 with NG of heavy chain CDR2 mutated to QG; also called c754G7C6-2; mutant chimeric antibody NG/QG
For B3, the EC50 [9] was 16.9 nM, the “Maximum mean fluorescence intensity” value [9] was 130000 MFI and the EC50 [10] was 0.03 nM. The “Maximum OD450 value” [10] was 3.23 OD450, the EC50 [11] was 11.6 nM and the “Maximum mean fluorescence intensity” value [11] was 111000 MFI.

B4: c75G7C6-3 (antibody, human IgG1, V domains shown)
VH: B2 VH with A56G, D102E
VL: B2 VL
notes: Chimeric 75G7C6 with DG of heavy chain CDR3 mutated to EG; Human IgG1/kappa; also called mutant chimeric antibody DG/EG
With B4 the EC50 [9] was 44.8 nM, the “Maximum mean fluorescence intensity” value [9] was 84700 MFI and the EC50 [10] was 0.54 nM. The “Maximum OD450 value” [10] was 1.86 OD450, the EC50 [11] was 24.8 nM and the “Maximum mean fluorescence intensity” value [11] was 94100 MFI.

B5: Murine anti-56F10 (antibody, V domains shown)
VH: EVQLQQSGAELVKPGASVKLSCTASGFNIKDFYMHWVKQRTEQGLEWIGRIDPEDGETKYAPKFQGKATITADTSSNTAYLQLSSLTSEDTAVYYCGCRTGGFAYWGQGTLVTVSA
VL: QIVLTQSPAIMSASPGEKVTMTCSASSSVSYLYWYQQKPGSSPSLLIYDTSNLASGVPVRFSGSGSGTSYSLTISRMEAEDAATYYCQQWSRNPWTFGGGTKLEIK
notes: murine hybridoma antibody; also called 56F10G2
B5 was tested, and the binding result [1] was “no binding”, the OD450 nm [2] was 0.98 and the OD450 nm [3] was 3.53. It also gave an OD450 nm [4] of 0.18, an OD450 nm [5] of 3.61 and an OD450 nm [6] of 0.11. It also gave an OD450 nm [7] of 0.1 and an OD450 nm [8] of 0.09.

B6: Murine anti-59G3 (antibody, V domains shown)
VH: DVQLQESGPGLVKPSQSLSLTCSVTGYSITSGYYWHWIRQFPENKLEWMGYISYDGSNIYNPSLKNRISITRDTSKNQFFLKLNSVTTEDTATYYCAINSDYALDYWGQGTSVTVSS
VL: B5 VL with L32M, S44R, R92S, N93Y, P94S, W95L, G99A, I105L
notes: murine hybridoma antibody; also called 59G3F12
In the case of B6, the binding result [1] is reported as “no binding”, the OD450 nm [2] is reported as 2.68 and the OD450 nm [3] is reported as 3.67. It also gave an OD450 nm [4] of 0.49, an OD450 nm [5] of 3.71 and an OD450 nm [6] of 0.13. It also gave an OD450 nm [7] of 0.08 and an OD450 nm [8] of 0.08.
